Measurements from the supplement of paper PMC11316812.
± gives the standard deviation of the averaged measurements.

Tests used:
MCF7 = assay: percentage of EdU-negative (G0-arrested) nuclei per well, 72 h; higher = more G0 arrest; conditions: reference: sequence is the full UniProt precursor, the tested protein was the secreted form or ectodomain
hTERT-HMEC = assay: as above; conditions: reference: sequence is the full UniProt precursor, the tested protein was the secreted form or ectodomain
[1] = protein concentration 0.0357143 µM
[2] = protein concentration 0.357143 µM
[3] = protein concentration 0.0145714 µM
[4] = protein concentration 0.145714 µM
[5] = protein concentration 0.0225 µM
[6] = protein concentration 0.0182857 µM
[7] = protein concentration 0.182857 µM
[8] = protein concentration 0.025165 µM
[9] = protein concentration 0.25165 µM
[10] = protein concentration 0.03125 µM
[11] = protein concentration 0.3125 µM
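Also: secreted proteins added to cultured cells, EdU pulse at the end, nuclei found by Hoechst imaging, EdU status from nuclear versus surrounding ring intensity ratio, PBS as neutral control.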

MNPTLILAAFCLGIASATLTFDHSLEAQWTKWKAMHNRLYGMNEEGWRRAVWEKNMKMIELHNQEYREGKHSFTMAMNAFGDMTSEEFRQVMNGFQNRKPRKGKVFQEPLFYEAPRSVDWREKGYVTPVKNQGQCGSCWAFSATGALEGQMFRKTGRLISLSEQNLVDCSGPQGNEGCNGGLMDYAFQYVQDNGGLDSEESYPYEATEESCKYNPKYSVANDTGFVDIPKQEKALMKAVATVGPISVAIDAGHESFLFYKEGIYFEPDCSSEDMDHGVLVVGYGFESTESDNNKYWLVKNSWGEEWGMGGYVKMAKDRRNHCGIASAASYPTV
percentage of EdU-negative (MCF7; [1]): 27.8 ± 1.3% | percentage of EdU-negative (MCF7; [2]): 24 ± 1.1% | percentage of EdU-negative (hTERT-HMEC; [1]): 4.81 ± 0.59% | percentage of EdU-negative (hTERT-HMEC; [2]): 5.42 ± 0.42%

MNQKTILVLLILAVITIFALVCVLLVGRGGDGGEPSQLPHCPSVSPSAQPWTHPGQSQLFADLSREELTAVMRFLTQRLGPGLVDAAQARPSDNCVFSVELQLPPKAAALAHLDRGSPPPAREALAIVFFGRQPQPNVSELVVGPLPHPSYMRDVTVERHGGPLPYHRRPVLFQEYLDIDQMIFNRELPQASGLLHHCCFYKHRGRNLVTMTTAPRGLQSGDRATWFGLYYNISGAGFFLHHVGLELLVNHKALDPARWTIQKVFYQGRYYDSLAQLEAQFEAGLVNVVLIPDNGTGGSWSLKSPVPPGPAPPLQFYPQGPRFSVQGSRVASSLWTFSFGLGAFSGPRIFDVRFQGERLVYEISLQEALAIYGGNSPAAMTTRYVDGGFGMGKYTTPLTRGVDCPYLATYVDWHFLLESQAPKTIRDAFCVFEQNQGLPLRRHHSDLYSHYFGGLAETVLVVRSMSTLLNYDYVWDTVFHPSGAIEIRFYATGYISSAFLFGATGKYGNQVSEHTLGTVHTHSAHFKVDLDVAGLENWVWAEDMVFVPMAVPWSPEHQLQRLQVTRKLLEMEEQAAFLVGSATPRYLYLASNHSNKWGHPRGYRIQMLSFAGEPLPQNSSMARGFSWERYQLAVTQRKEEEPSSSSVFNQNDPWAPTVDFSDFINNETIAGKDLVAWVTAGFLHIPHAEDIPNTVTVGNGVGFFLRPYNFFDEDPSFYSADSIYFRGDQDAGACEVNPLACLPQAAACAPDLPAFSHGGFSHN
percentage of EdU-negative (MCF7; [3]): 22.8 ± 0.3% | percentage of EdU-negative (MCF7; [4]): 26.8 ± 0.78% | percentage of EdU-negative (hTERT-HMEC; [3]): 5.32 ± 0.3% | percentage of EdU-negative (hTERT-HMEC; [4]): 6.82 ± 0.15%

MNQVTIQWDAVIALYILFSWCHGGITNINCSGHIWVEPATIFKMGMNISIYCQAAIKNCQPRKLHFYKNGIKERFQITRINKTTARLWYKNFLEPHASMYCTAECPKHFQETLICGKDISSGYPPDIPDEVTCVIYEYSGNMTCTWNAGKLTYIDTKYVVHVKSLETEEEQQYLTSSYINISTDSLQGGKKYLVWVQAANALGMEESKQLQIHLDDIVIPSAAVISRAETINATVPKTIIYWDSQTTIEKVSCEMRYKATTNQTWNVKEFDTNFTYVQQSEFYLEPNIKYVFQVRCQETGKRYWQPWSSLFFHKTPETVPQVTSKAFQHDTWNSGLTVASISTGHLTSDNRGDIGLLLGMIVFAVMLSILSLIGIFNRSFRTGIKRRILLLIPKWLYEDIPNMKNSNVVKMLQENSELMNNNSSEQVLYVDPMITEIKEIFIPEHKPTDYKKENTGPLETRDYPQNSLFDNTTVVYIPDLNTGYKPQISNFLPEGSHLSNNNEITSLTLKPPVDSLDSGNNPRLQKHPNFAFSVSSVNSLSNTIFLGELSLILNQGECSSPDIQNSVEEETTMLLENDSPSETIPEQTLLPDEFVSCLGIVNEELPSINTYFPQNILESHFNRISLLEK [Q5VWK5]
percentage of EdU-negative (MCF7; [5]): 23.7 ± 1.1% | percentage of EdU-negative (MCF7; protein concentration 0.225 µM): 29.2 ± 0.53% | percentage of EdU-negative (hTERT-HMEC; [5]): 6.46 ± 1.6% | percentage of EdU-negative (hTERT-HMEC; protein concentration 0.225 µM): 15.8 ± 1.4%

MNRFLLLMSLYLLGSARGTSSQPNELSGSIDHQTSVQQLPGEFFSLENPSDAEALYETSSGLNTLSEHGSSEHGSSKHTVAEHTSGEHAESEHASGEPAATEHAEGEHTVGEQPSGEQPSGEHLSGEQPLSELESGEQPSDEQPSGEHGSGEQPSGEQASGEQPSGEHASGEQASGAPISSTSTGTILNCYTCAYMNDQGKCLRGEGTCITQNSQQCMLKKIFEGGKLQFMVQGCENMCPSMNLFSHGTRMQIICCRNQSFCNKI
percentage of EdU-negative (MCF7; [1]): 24.76 ± 0.1% | percentage of EdU-negative (MCF7; [2]): 27.1 ± 1.2% | percentage of EdU-negative (hTERT-HMEC; [1]): 6.06 ± 0.83% | percentage of EdU-negative (hTERT-HMEC; [2]): 9.78 ± 0.68%

MNVLLGSVVIFATFVTLCNASCYFIPNEGVPGDSTRKCMDLKGNKHPINSEWQTDNCETCTCYETEISCCTLVSTPVGYDKDNCQRIFKKEDCKYIVVEKKDPKKTCSVSEWII
percentage of EdU-negative (MCF7; [5]): 25.8 ± 1.8% | percentage of EdU-negative (MCF7; protein concentration 0.225 µM): 24.5 ± 0.81% | percentage of EdU-negative (hTERT-HMEC; [5]): 5.28 ± 0.77% | percentage of EdU-negative (hTERT-HMEC; protein concentration 0.225 µM): 5.95 ± 1.1%

MNWHLPLFLLASVTLPSICSHFNPLSLEELGSNTGIQVFNQIVKSRPHDNIVISPHGIASVLGMLQLGADGRTKKQLAMVMRYGVNGVGKILKKINKAIVSKKNKDIVTVANAVFVKNASEIEVPFVTRNKDVFQCEVRNVNFEDPASACDSINAWVKNETRDMIDNLLSPDLIDGVLTRLVLVNAVYFKGLWKSRFQPENTKKRTFVAADGKSYQVPMLAQLSVFRCGSTSAPNDLWYNFIELPYHGESISMLIALPTESSTPLSAIIPHISTKTIDSWMSIMVPKRVQVILPKFTAVAQTDLKEPLKVLGITDMFDSSKANFAKITTGSENLHVSHILQKAKIEVSEDGTKASAATTAILIARSSPPWFIVDRPFLFFIRHNPTGAVLFMGQINKP
percentage of EdU-negative (MCF7; [6]): 26.98 ± 0.12% | percentage of EdU-negative (MCF7; [7]): 27.93 ± 0.17% | percentage of EdU-negative (hTERT-HMEC; [6]): 4.86 ± 0.67% | percentage of EdU-negative (hTERT-HMEC; [7]): 9.81 ± 1%

MPACRLGPLAAALLLSLLLFGFTLVSGTGAEKTGVCPELQADQNCTQECVSDSECADNLKCCSAGCATFCSLPNDKEGSCPQVNINFPQLGLCRDQCQVDSQCPGQMKCCRNGCGKVSCVTPNF
percentage of EdU-negative (MCF7; [8]): 25.2 ± 0.76% | percentage of EdU-negative (MCF7; [9]): 25.3 ± 0.99% | percentage of EdU-negative (hTERT-HMEC; [8]): 4.52 ± 0.38% | percentage of EdU-negative (hTERT-HMEC; [9]): 4.9 ± 0.49%

MPAFNRLFPLASLVLIYWVSVCFPVCVEVPSETEAVQGNPMKLRCISCMKREEVEATTVVEWFYRPEGGKDFLIYEYRNGHQEVESPFQGRLQWNGSKDLQDVSITVLNVTLNDSGLYTCNVSREFEFEAHRPFVKTTRLIPLRVTEEAGEDFTSVVSEIMMYILLVFLTLWLLIEMIYCYRKVSKAEEAAQENASDYLAIPSENKENSAVPVEE [Q9NY72]
percentage of EdU-negative (MCF7; [10]): 25.4 ± 0.68% | percentage of EdU-negative (MCF7; [11]): 25.4 ± 1.8% | percentage of EdU-negative (hTERT-HMEC; [10]): 4.7 ± 0.6% | percentage of EdU-negative (hTERT-HMEC; [11]): 4.76 ± 0.95%
